Measured values published in patent US20030108554A1 (published 2003).
Changes are numbered by the printed parent chain.

B1: GIP130b (other)
chain: MRSRGSDTEGSAQKKFPRHTKGHSFQGPKNMKHRQQDKDSPSESDVILPCPKAEKPHSGNGHQAEDLSRDDLLFLLSILEGELQARDEVIGILKAEKMDLALLEAQYGFVTPKKVLEALQRDAFQAKSTPWQEDIYEKPMNELDKVVEKHKESYRRILGQLLVAEKSHRQTILELEEEKRKHKEYMEKSDEFICLLEQECERLKKLIDQEIKSQEEKEQEKEKRVTTLKEELTKLKSFALMVVDEQQRLTAQLTLQRQKIQELTTNAKETHTKLALAEARVQEEEQKATRLEKELQTQTTKFHQDQDTIMAKLTNEDSQNRQLQQKLAALSRQIDELEETNRSLRKAEEELQDIKEKISKGEYGNAGIMAEVEELRKRVLDMEGKDEELIKMEEQCRDLNKRLERETLQSKDFKLEVEKLSKRIMALEKLEDAFNKSKQECYSLKCNLEKERMTTKQLSQELESLKVRIKELEAIESRLEKTEFTLKEDLTKLKTLTVMFVDERKTMSEKLKKTEDKLQAASSQLQVEQNKVTTVTEKLIEETKRALKSKTDVEEKMYSVTKERDDLKNKLKAEEEKGNDLLSRVNMLKNRLQSLEAIEKDFLKNKLNQDSGKSTTALHQENNKIKELSQEVERLKLKLKDMKAIEDDLMKTEDEYETLERRYANERDKAQFLSKELEHVKMELAKYKLAEKTETSHEQWLFKRLQEEEAKSGHLSREVDALKEKIHEYMATEDLICHLQGDHSVLQKKLNQQENRNRDLGREIENLTKELERYRHFSKSLRPSLNGRRISDPQVFSKEVQTEAVDNEPPDYKSLIPLERAVINGQLYEESENQDEDPNDEGSVLSFKCSQSTPCPVNRKLWIPWMKSKEGHLQNGKMQTKPNANFVQPGDLVLSHTPGQPLHIKVTPDHVQNTATLEITSPTTESPHSYTSTAVIPNCGTPKQRITILQNASITPVKSKTSTEDLMNLEQGMSPITMATFARAQTPESCGSLTPERTMSPIQVLAVTGSASSPEQGRSPEPTEISAKHAIFRVSPDRQSSWQFQRSNSNSSSVITTEDNKIHIHLGSPYMQAVASPVRPASPSAPLQDNRTQGLINGALNKTTNKVTSSITITPTATPLPRQSQITVSNIYN
notes: Full length; tested as GAL4 domain fusion in yeast two-hybrid
B2: GIP130c (other)
chain: B1 chain with H168R
notes: as for B1
B3: GIP130a (other)
chain: MRSRGSDTEGSAQKKFPRHTKGHSFQGPKNMKHRQQDKDSPSESDVILPCPKAEKPHSGNGHQAEDLSRDDLLFLLSILEGELQARDEVIGILKAEKMDLALLEAQYGFVTPKKVLEALQRDAFQAKSTPWQEDIYEKPMNELDKVVEKHKESYRRILGQLLVAEKSRRQTILELEEEKRKHKEYMEKSDEFICLLEQECERLKKLIDQEIKSQEEKEQEKEKRVTTLKEELTKLKSFALMVVDEQQRLTAQLTLQRQKIQELTTNAKETHTKLALAEARVQEEEQKATRLEKELQTQTTKFHQDQDTIMAKLTNEDSQNRQLQQKLAALSRQIDELEETNRSLRKAEEELQDIKEKISKGEYGNAGIMAEVEELRKRVLDMEGKDEELIKMEEQCRDLNKRLERETLQSKDFKLEVEKLSKRIMALEKLEDAFNKSKQECYSLKCNLEKERMTTKQLSQELESLKVRIKELEAIESRLEKTEFTLKEDLTKLKTLTVMFVDERKTMSEKLKKTEDKLQAASSQLQVEQNKVTTVTEKLIEETKRALKSKTDVEEKMYSVTKERDDLKNKLKAEEEKGNDLLSRVNMLKNRLQSLEAIEKDFLKNKLNQDSGKSTTALHQENNKIKELSQEVERLKLKLKDMKAIEDDLMKTEDEYETLERRYANERDKAQFLSKELEHVKMELAKYKLAEKTETSHEQWLFKRLQEEEAKSGHLSREVDALKEKIHEYMATEDLICHLQGDHSVLQKKLNQQENRNRDLGREIENLTKELERYRHFSKSLRPSLNGRRISDPQVFSKEVQTEAVDNEPPDYKSLIPLERAVINGQLYEESENQDEDPNDEGSVLSFKCSQSTPCPVNRKLWIPWMKSKEGHLQNGKMQTKPNANFVQPGDLVLSHTPGQPLHIKVTPDHVQNTATLEITSPTTESPHSYTSTAVIPNCGTPKQRITILQNASITPVKSKTSTEDLMNLEQGMSPITMATFARAQTPESCGSLTPERTMSPIQVLAVTGSASSPEQGRSPEPTEISAKHAIFRVSPDRQSSWQFQRSNSNSSSVITTEDNKIHIHLGSPYMQAVASPVRPASPSAPLQDNRTQGLINGALNKTTNKVTSSITITPTATPLPRQSQITVEPLLLPH
notes: as for B1

Legend:
Experiment in all cases: yeast two-hybrid
[1] = target: B2
[2] = target: the molecule itself
[3] = target: B3

| Binder | binding result [1] | binding result [2] | binding result [3] |
| --- | --- | --- | --- |
| B1 | binds | binds | binds |
| B2 | – | binds | binds |
| B3 | – | binds | – |
